From article PMC9482650, “Quantitative fragmentomics allow affinity mapping of interactomes” (Nature Communications, 2022)

T1: HTRA4, P83105
T1 sequence (P83105 378-476, limits assumed, looked up): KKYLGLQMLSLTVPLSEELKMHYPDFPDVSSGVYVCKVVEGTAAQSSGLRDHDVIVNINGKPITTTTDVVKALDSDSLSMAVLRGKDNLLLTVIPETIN

T2: DFNB31_3, Q9P202
T2 sequence (Q9P202 811-907, limits assumed, looked up): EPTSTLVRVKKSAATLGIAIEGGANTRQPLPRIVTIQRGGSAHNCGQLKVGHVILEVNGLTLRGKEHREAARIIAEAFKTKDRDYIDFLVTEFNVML

T3: MPP7, Q5T2T1
T3 sequence (Q5T2T1 134-230, limits assumed, looked up): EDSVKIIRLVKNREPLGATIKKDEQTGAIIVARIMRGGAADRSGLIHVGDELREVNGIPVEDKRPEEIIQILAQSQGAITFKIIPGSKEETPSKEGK

T4: DLG3_2, Q92796
T4 sequence (Q92796 221-321, limits assumed, looked up): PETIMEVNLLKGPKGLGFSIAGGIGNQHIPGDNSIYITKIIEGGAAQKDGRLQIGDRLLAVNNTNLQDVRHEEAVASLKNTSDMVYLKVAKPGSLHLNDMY

T5: PDZD2_2, O15018
T5 sequence (O15018 329-429, limits assumed, looked up): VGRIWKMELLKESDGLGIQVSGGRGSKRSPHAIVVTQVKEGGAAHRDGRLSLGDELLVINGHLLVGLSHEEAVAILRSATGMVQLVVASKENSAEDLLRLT

T6: DFNB31_2, Q9P202
T6 sequence (Q9P202 274-371, limits assumed, looked up): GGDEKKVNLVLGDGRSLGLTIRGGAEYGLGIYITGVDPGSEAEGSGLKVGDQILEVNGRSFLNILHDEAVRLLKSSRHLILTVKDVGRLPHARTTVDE

T7: RADIL, Q96JH8
T7 sequence (Q96JH8 971-1071, limits assumed, looked up): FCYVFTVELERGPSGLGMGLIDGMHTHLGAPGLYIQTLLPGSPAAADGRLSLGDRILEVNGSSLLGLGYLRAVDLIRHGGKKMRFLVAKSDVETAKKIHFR

T8: TX1BP3, O14907
T8 sequence (O14907 10-122, limits assumed, looked up): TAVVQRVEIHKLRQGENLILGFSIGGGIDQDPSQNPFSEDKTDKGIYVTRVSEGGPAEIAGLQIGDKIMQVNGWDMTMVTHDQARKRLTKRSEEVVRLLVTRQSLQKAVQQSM

T9: PTPN13_1, Q12923
T9 sequence (Q12923 1088-1188, limits assumed, looked up): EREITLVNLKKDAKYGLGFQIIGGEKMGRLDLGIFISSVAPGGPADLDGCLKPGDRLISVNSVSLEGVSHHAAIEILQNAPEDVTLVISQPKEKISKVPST

T10: DLG3_3, Q92796
T10 sequence (Q92796 374-475, limits assumed, looked up): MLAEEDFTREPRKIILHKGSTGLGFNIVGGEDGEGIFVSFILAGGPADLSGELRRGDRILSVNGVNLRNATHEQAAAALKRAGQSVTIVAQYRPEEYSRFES

T11: LIN7C, Q9NUP9
T11 sequence (Q9NUP9 88-185, limits assumed, looked up): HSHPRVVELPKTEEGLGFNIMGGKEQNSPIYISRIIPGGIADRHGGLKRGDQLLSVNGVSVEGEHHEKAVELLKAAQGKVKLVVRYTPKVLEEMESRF

B1: DUSP10, Q9Y6W6 (peptide)
chain: PKLMGVETVV
B2: ITK, Q08881 (peptide)
chain: QLAEIAESGL

Biological target: GRIP2_4, Q9C0E4
Sequence (Q9C0E4 446-548): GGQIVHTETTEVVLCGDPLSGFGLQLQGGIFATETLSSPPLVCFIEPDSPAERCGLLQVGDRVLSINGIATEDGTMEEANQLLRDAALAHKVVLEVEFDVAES
Experiment: holdup assay
Parameters: key: below the threshold = too weak to quantify, mostly under pKd 3.1 to 4
Conditions: plain residues with an end cap or a label only (N-terminal biotin on a linker: ado-ado)

Binder | pKd
B1 | below the threshold
B2 | 3.49

Biological target: T1, HTRA4, P83105
Experiment: holdup assay
Parameters: key: below the threshold = too weak to quantify, mostly under pKd 3.1 to 4
Conditions: plain residues with an end cap or a label only (N-terminal biotin on a linker: ado-ado)

Binder | pKd
B1 | 3.74
B2 | below the threshold

Biological target: MAGI2_2, Q86UL8
Sequence (Q86UL8 410-522): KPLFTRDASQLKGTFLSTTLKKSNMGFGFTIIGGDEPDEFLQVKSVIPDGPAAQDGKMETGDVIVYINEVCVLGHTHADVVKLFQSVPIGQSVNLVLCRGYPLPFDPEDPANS
Experiment: holdup assay
Parameters: key: below the threshold = too weak to quantify, mostly under pKd 3.1 to 4
Conditions: plain residues with an end cap or a label only (N-terminal biotin on a linker: ado-ado)

Binder | pKd
B1 | 4.73
B2 | below the threshold

Biological target: T2, DFNB31_3, Q9P202
Experiment: holdup assay
Parameters: key: below the threshold = too weak to quantify, mostly under pKd 3.1 to 4
Conditions: plain residues with an end cap or a label only (N-terminal biotin on a linker: ado-ado)

Binder | pKd
B1 | below the threshold
B2 | below the threshold

Biological target: LAP2, Q96RT1
Sequence (Q96RT1 other isoform, or with tags, fused parts or gaps): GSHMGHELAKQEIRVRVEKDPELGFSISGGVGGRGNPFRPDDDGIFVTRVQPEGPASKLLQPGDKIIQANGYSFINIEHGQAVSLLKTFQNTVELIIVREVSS
Experiment: holdup assay
Parameters: key: below the threshold = too weak to quantify, mostly under pKd 3.1 to 4
Conditions: plain residues with an end cap or a label only (N-terminal biotin on a linker: ado-ado)

Binder | pKd
B1 | 4.03
B2 | below the threshold

Biological target: T3, MPP7, Q5T2T1
Experiment: holdup assay
Parameters: key: below the threshold = too weak to quantify, mostly under pKd 3.1 to 4
Conditions: plain residues with an end cap or a label only (N-terminal biotin on a linker: ado-ado)

Binder | pKd
B1 | below the threshold
B2 | below the threshold

Biological target: Inadl_5, Q8NI35
Sequence (Q8NI35 673-780): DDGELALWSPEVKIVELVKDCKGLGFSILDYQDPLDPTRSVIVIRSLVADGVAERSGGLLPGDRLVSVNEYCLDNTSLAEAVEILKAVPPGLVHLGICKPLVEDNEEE
Experiment: holdup assay
Parameters: key: below the threshold = too weak to quantify, mostly under pKd 3.1 to 4
Conditions: plain residues with an end cap or a label only (N-terminal biotin on a linker: ado-ado)

Binder | pKd
B1 | 3.56
B2 | 3.58

Biological target: PICK1, Q9NRD5
Sequence (Q9NRD5 17-115): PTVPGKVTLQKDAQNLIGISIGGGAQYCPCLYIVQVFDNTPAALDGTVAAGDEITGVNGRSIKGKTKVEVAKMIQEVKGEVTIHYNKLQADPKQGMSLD
Experiment: holdup assay
Parameters: key: below the threshold = too weak to quantify, mostly under pKd 3.1 to 4
Conditions: plain residues with an end cap or a label only (N-terminal biotin on a linker: ado-ado)

Binder | pKd
B1 | below the threshold
B2 | below the threshold

Biological target: T4, DLG3_2, Q92796
Experiment: holdup assay
Parameters: key: below the threshold = too weak to quantify, mostly under pKd 3.1 to 4
Conditions: plain residues with an end cap or a label only (N-terminal biotin on a linker: ado-ado)

Binder | pKd
B1 | 5.2
B2 | below the threshold

Biological target: T5, PDZD2_2, O15018
Experiment: holdup assay
Parameters: key: below the threshold = too weak to quantify, mostly under pKd 3.1 to 4
Conditions: plain residues with an end cap or a label only (N-terminal biotin on a linker: ado-ado)

Binder | pKd
B1 | 4.22
B2 | 3.68

Biological target: T6, DFNB31_2, Q9P202
Experiment: holdup assay
Parameters: key: below the threshold = too weak to quantify, mostly under pKd 3.1 to 4
Conditions: plain residues with an end cap or a label only (N-terminal biotin on a linker: ado-ado)

Binder | pKd
B1 | below the threshold
B2 | below the threshold

Biological target: HTRA2, O43464
Sequence (O43464 355-458): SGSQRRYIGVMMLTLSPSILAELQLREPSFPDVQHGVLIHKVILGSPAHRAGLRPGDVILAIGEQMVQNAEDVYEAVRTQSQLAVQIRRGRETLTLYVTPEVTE
Experiment: holdup assay
Parameters: key: below the threshold = too weak to quantify, mostly under pKd 3.1 to 4
Conditions: plain residues with an end cap or a label only (N-terminal biotin on a linker: ado-ado)

Binder | pKd
B1 | below the threshold
B2 | below the threshold

Biological target: SCRIB_3, Q14160
Sequence (Q14160 999-1103): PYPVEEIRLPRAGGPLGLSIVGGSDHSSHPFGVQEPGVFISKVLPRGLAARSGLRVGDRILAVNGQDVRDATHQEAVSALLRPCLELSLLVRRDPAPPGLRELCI
Experiment: holdup assay
Parameters: key: below the threshold = too weak to quantify, mostly under pKd 3.1 to 4
Conditions: plain residues with an end cap or a label only (N-terminal biotin on a linker: ado-ado)

Binder | pKd
B1 | 4.44
B2 | 4.16

Biological target: T7, RADIL, Q96JH8
Experiment: holdup assay
Parameters: key: below the threshold = too weak to quantify, mostly under pKd 3.1 to 4
Conditions: plain residues with an end cap or a label only (N-terminal biotin on a linker: ado-ado)

Binder | pKd
B1 | 4.5
B2 | below the threshold

Biological target: DLG4_3, P78352
Sequence (P78352 306-403): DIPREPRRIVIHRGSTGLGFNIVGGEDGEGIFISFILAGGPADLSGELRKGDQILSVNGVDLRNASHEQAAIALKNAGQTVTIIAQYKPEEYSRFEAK
Experiment: holdup assay
Parameters: key: below the threshold = too weak to quantify, mostly under pKd 3.1 to 4
Conditions: plain residues with an end cap or a label only (N-terminal biotin on a linker: ado-ado)

Binder | pKd
B1 | 4.01
B2 | 3.62

Biological target: MAST1, Q9Y2H9
Sequence (Q9Y2H9 962-1065): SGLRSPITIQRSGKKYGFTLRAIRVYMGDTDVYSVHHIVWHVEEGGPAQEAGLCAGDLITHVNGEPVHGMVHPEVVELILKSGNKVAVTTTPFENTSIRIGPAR
Experiment: holdup assay
Parameters: key: below the threshold = too weak to quantify, mostly under pKd 3.1 to 4
Conditions: plain residues with an end cap or a label only (N-terminal biotin on a linker: ado-ado)

Binder | pKd
B1 | 4.58
B2 | 4.54

Biological target: T8, TX1BP3, O14907
Experiment: holdup assay
Parameters: key: below the threshold = too weak to quantify, mostly under pKd 3.1 to 4
Conditions: plain residues with an end cap or a label only (N-terminal biotin on a linker: ado-ado)

Binder | pKd
B1 | 4.15
B2 | below the threshold

Biological target: MAGI2_5, Q86UL8
Sequence (Q86UL8 915-1017): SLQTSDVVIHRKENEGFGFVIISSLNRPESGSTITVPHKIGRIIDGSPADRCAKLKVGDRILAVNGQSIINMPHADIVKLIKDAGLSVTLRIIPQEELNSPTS
Experiment: holdup assay
Parameters: key: below the threshold = too weak to quantify, mostly under pKd 3.1 to 4
Conditions: plain residues with an end cap or a label only (N-terminal biotin on a linker: ado-ado)

Binder | pKd
B1 | 4.06
B2 | below the threshold

Biological target: NOS1, P29475
Sequence (P29475 9-101): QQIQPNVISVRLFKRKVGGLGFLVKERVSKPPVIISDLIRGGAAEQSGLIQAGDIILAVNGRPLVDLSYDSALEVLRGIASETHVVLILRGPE
Experiment: holdup assay
Parameters: key: below the threshold = too weak to quantify, mostly under pKd 3.1 to 4
Conditions: plain residues with an end cap or a label only (N-terminal biotin on a linker: ado-ado)

Binder | pKd
B1 | 4.08
B2 | below the threshold

Biological target: Inadl_1, Q8NI35
Sequence (Q8NI35 113-229): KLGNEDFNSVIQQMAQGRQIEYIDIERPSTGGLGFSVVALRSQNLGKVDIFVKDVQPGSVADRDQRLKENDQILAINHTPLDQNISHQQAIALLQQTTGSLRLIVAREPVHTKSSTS
Experiment: holdup assay
Parameters: key: below the threshold = too weak to quantify, mostly under pKd 3.1 to 4
Conditions: plain residues with an end cap or a label only (N-terminal biotin on a linker: ado-ado)

Binder | pKd
B1 | below the threshold
B2 | below the threshold

Biological target: IL16_3, Q14005
Sequence (Q14005 1107-1207): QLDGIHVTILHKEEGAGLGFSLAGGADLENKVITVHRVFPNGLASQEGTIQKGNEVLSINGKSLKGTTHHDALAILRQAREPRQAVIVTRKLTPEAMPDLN
Experiment: holdup assay
Parameters: key: below the threshold = too weak to quantify, mostly under pKd 3.1 to 4
Conditions: plain residues with an end cap or a label only (N-terminal biotin on a linker: ado-ado)

Binder | pKd
B1 | below the threshold
B2 | 3.74

Biological target: Inadl_6, Q8NI35
Sequence (Q8NI35 1058-1167): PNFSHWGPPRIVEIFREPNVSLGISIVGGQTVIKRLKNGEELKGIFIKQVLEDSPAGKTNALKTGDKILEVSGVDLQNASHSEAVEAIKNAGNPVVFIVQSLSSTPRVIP
Experiment: holdup assay
Parameters: key: below the threshold = too weak to quantify, mostly under pKd 3.1 to 4
Conditions: plain residues with an end cap or a label only (N-terminal biotin on a linker: ado-ado)

Binder | pKd
B1 | 3.53
B2 | below the threshold

Biological target: FRMPD2_3, Q68DX3
Sequence (Q68DX3 1073-1166): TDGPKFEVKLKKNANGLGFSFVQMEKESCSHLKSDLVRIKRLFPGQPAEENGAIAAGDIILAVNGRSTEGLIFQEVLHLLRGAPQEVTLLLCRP
Experiment: holdup assay
Parameters: key: below the threshold = too weak to quantify, mostly under pKd 3.1 to 4
Conditions: plain residues with an end cap or a label only (N-terminal biotin on a linker: ado-ado)

Binder | pKd
B1 | 3.61
B2 | below the threshold

Biological target: T9, PTPN13_1, Q12923
Experiment: holdup assay
Parameters: key: below the threshold = too weak to quantify, mostly under pKd 3.1 to 4
Conditions: plain residues with an end cap or a label only (N-terminal biotin on a linker: ado-ado)

Binder | pKd
B1 | 3.48
B2 | below the threshold

Biological target: Inadl_4, Q8NI35
Sequence (Q8NI35 547-651): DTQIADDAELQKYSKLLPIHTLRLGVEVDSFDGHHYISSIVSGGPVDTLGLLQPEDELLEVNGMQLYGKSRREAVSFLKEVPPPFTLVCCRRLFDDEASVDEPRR
Experiment: holdup assay
Parameters: key: below the threshold = too weak to quantify, mostly under pKd 3.1 to 4
Conditions: plain residues with an end cap or a label only (N-terminal biotin on a linker: ado-ado)

Binder | pKd
B1 | below the threshold
B2 | below the threshold

Biological target: T10, DLG3_3, Q92796
Experiment: holdup assay
Parameters: key: below the threshold = too weak to quantify, mostly under pKd 3.1 to 4
Conditions: plain residues with an end cap or a label only (N-terminal biotin on a linker: ado-ado)

Binder | pKd
B1 | 3.91
B2 | 3.55

Biological target: T11, LIN7C, Q9NUP9
Experiment: holdup assay
Parameters: key: below the threshold = too weak to quantify, mostly under pKd 3.1 to 4
Conditions: plain residues with an end cap or a label only (N-terminal biotin on a linker: ado-ado)

Binder | pKd
B1 | 3.81
B2 | below the threshold
